Common to all, as to assay: EMSA; 150 mM KCl, 1 mM Mg2+; EMSA: 50 mM Tris-HCl pH 7.4, 1 mM MgCl2, 0.1 mM EDTA, 150 mM KCl (or LiCl, printed LiCl2), 1 mM DTT, 1 U/ul RNase inhibitor, 100 ug/ml BSA, ~25 C, 20 min; 0.5 pmol RNA in 10 ul
Holding throughout (conditions): protein: recombinant; tags: N-terminal GST (pGEX-6P-1); label: 5' 32P or 5' ATTO 550; intramolecular G4 (plausible structure)
In general terms: A gel shift assay detects complexes by their altered migration in electrophoresis.

The target in one data set is GST-FXR1 S382-P476 WT (human, UniProt P51114 382-476).
GST-FXR1 S382-P476 WT, sequence (P51114 382-476): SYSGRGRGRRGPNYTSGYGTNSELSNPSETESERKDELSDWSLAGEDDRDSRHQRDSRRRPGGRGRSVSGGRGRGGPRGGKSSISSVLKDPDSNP
A further data set has as its target GST-FXR1 S382-P476 R386K (human, UniProt P51114 382-476, R386K).
The target in data set [1] is GST-FXR1 S382-P476 R386-459K (human, UniProt P51114 382-476, R386K;R388K;R453K;R455K;R459K).
GST-FXR1 S382-P476 R386-459K, sequence (P51114 382-476 R386K/R388K/R453K/R455K/R459K): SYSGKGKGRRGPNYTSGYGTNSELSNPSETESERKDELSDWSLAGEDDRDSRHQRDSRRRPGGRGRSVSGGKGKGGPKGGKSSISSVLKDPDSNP

GST-FXR1 S382-P476 R386K, sequence (P51114 382-476 R386K): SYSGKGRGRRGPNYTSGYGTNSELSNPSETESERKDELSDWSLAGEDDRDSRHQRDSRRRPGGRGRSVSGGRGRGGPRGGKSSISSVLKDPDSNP

As to GGGGGUGAGGGUCCCAUGUGGUGGCACAGG (structured_RNA) [30-mer p21 3'UTR G4-RNA (seg1)], the Kd – broadly, the constant that tells how readily two partners part at equilibrium – with GST-FXR1 S382-P476 WT amounted to 25 nM. The binding result (with GST-FXR1 S382-P476 R386K; in data set [1]) was “no binding” throughout.

The record behind these values is paper PMC11229354, “PRMT5-mediated arginine methylation of FXR1 is essential for RNA binding in cancer cells”.
